In data set [1] the test system is wild-type proaerolysin from Aeromonas hydrophila.
In data set [2] the test system is MPP5 (histidine-tagged modified proaerolysin with a PSA cleavage site).
The subject of data set [3] is MPP1 (proaerolysin with the furin site replaced by the PSA substrate HSSKLQ).

Sequence of MMP-7 (P09237 95-267): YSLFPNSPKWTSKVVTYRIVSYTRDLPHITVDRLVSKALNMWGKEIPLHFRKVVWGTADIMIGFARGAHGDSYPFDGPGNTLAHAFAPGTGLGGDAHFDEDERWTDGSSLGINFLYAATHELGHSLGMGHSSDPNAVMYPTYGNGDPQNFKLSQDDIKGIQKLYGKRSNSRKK

In data set [1], Cathepsin B (cysteine protease) had an Amount Required for 50% Cleavage of Native Proaerolysin of 51.6 units and a Specific Activity Towards Proaerolysin of 3.9 fmol/µg/min. Further, in data set [2], the Amount Required for 50% Cleavage of MPP5 was 170 units and the Specific Activity Towards MPP5 turned out to be 1.2 fmol/µg/min.

For Chymotrypsin, in data set [1], the Amount Required for 50% Cleavage of Native Proaerolysin came out at 3 µg and the Specific Activity Towards Proaerolysin amounted to 1550 nM/µg/min. Moreover, in data set [2], the Amount Required for 50% Cleavage of MPP5 came out at 31 µg and the Specific Activity Towards MPP5 came to 150 nM/µg/min.

Turning to Furin, in data set [1], the Amount Required for 50% Cleavage of Native Proaerolysin came out at 0.0012 µg and the Specific Activity Towards Proaerolysin worked out at 9.69 nM/µg/min. In data set [2], this substance displayed an Amount Required for 50% Cleavage of MPP5 of over 0.0032 µg and a Specific Activity Towards MPP5 of 0.24 nM/µg/min.

On to MMP-7, for which, in data set [1], the “Amount Required for 50% Cleavage of Native Proaerolysin” value is listed as “Inactive” and the Specific Activity Towards Proaerolysin was determined as 0. For the same substance, in data set [2], the “Amount Required for 50% Cleavage of MPP5” value is “Inactive” and the Specific Activity Towards MPP5 was 0.

On to “Prostate-specific antigen (PSA), also referred as hK3”, for which, in data set [1], the Amount Required for 50% Cleavage of Native Proaerolysin stood at 49.7 µg and the Specific Activity Towards Proaerolysin turned out to be 0.0156 nM/µg/min. In addition, in data set [2], the Amount Required for 50% Cleavage of MPP5 is 12.2 µg and the Specific Activity Towards MPP5 stood at 0.0635 nM/µg/min. Also, in data set [3], the “hemolysis (ratio to Triton control), MPP1 10^-8 M pre-incubated with PSA in buffer” value is given as “about 45% hemolysis” and the “hemolysis, MPP1 in human plasma or plasma spiked with PSA (10,000 ng/ml)” value is “no appreciable hemolysis (i.e. <1% of Triton control”.

In data set [1], Thrombin yielded an Amount Required for 50% Cleavage of Native Proaerolysin of over 12 µg and a Specific Activity Towards Proaerolysin of under 7.8e-07 nM/µg/min. In data set [2], this substance came in with an Amount Required for 50% Cleavage of MPP5 of over 12 µg and a Specific Activity Towards MPP5 of under 7.8e-07 nM/µg/min.

Trypsin (Type I trypsin): in data set [1], the Amount Required for 50% Cleavage of Native Proaerolysin amounted to 0.0095 µg and the Specific Activity Towards Proaerolysin was found to be 489000 nM/µg/min. In addition, in data set [2], the Amount Required for 50% Cleavage of MPP5 came to 0.813 µg and the Specific Activity Towards MPP5 worked out at 5700 nM/µg/min.

In data set [1], hK1 (activated by thermolysin) showed an Amount Required for 50% Cleavage of Native Proaerolysin of 2.63 µg and a Specific Activity Towards Proaerolysin of 15.3 fmol/µg/min. Also, in data set [2], the “Amount Required for 50% Cleavage of MPP5” value was “Inactive” and the Specific Activity Towards MPP5 was determined as 0.

Regarding hK2 (human glandular kallikrein 2), the Specific Activity Towards Proaerolysin in data set [1] turned out to be 1610 fmol/µg/min. In data set [2], the “Amount Required for 50% Cleavage of MPP5” value is reported as “Inactive” and the Specific Activity Towards MPP5 came to 0.

In data set [1], uPA gave an Amount Required for 50% Cleavage of Native Proaerolysin of 7.79 µg and a Specific Activity Towards Proaerolysin of 25.8 fmol/µg/min. In data set [2], this substance returned an Amount Required for 50% Cleavage of MPP5 of 173 µg and a Specific Activity Towards MPP5 of 1.1 fmol/µg/min.

The values are drawn from US20100233191.
